{"source": "patent US20250019450A1", "about": "(DIAGONAL THERAPEUTICS, published 2025)", "binders": {"B1": {"name": "85802_02K15 (antibody, V domains shown)", "VH": "EVQLVQSGTEVKKPGESLKISCKGSGYSFTSYWIGWVRQMPGKGLEWMGNIYPGDSDTRYSPSFQGHVTISADKSISTAYLQWSSLKASDTAMYYCARRGGGYWGQGTLVTVSS", "VL": "not shown", "notes": "also called 85802_02K15A"}, "B2": {"name": "85802_10K12 (antibody, V domains shown)", "VH": "QVTLRESGPALVKPTQTLTLTCTFSGFSLSTSGMCVSWIRQPPGKALEWLALIYWDDDKYYSTSLKTRLTISKDTSKNQVVLTMTNMDPVDTATYYCARMRRGIEAFDIWGQGTMVTVFS", "VL": "QSVLTQPPSVSGAPGQRVTISCTGSSSNIGAGYDVHWYQQLPGTAPKLLIFGYSNRPSGVPVRFSGSKSGTSASLAITGLLAEDEADFYCQSFDISLTGWVFGGGTKLTVL", "notes": "also called 85802_10K12A"}, "B3": {"name": "85802_10M17 (antibody, V domains shown)", "VH": "EVLLVESGGGLVKPGGSLRLSCAASGFTFSSYSMNWVRQAPGKGLEWVSSISSSSDYIHYADSVRGRFTISRDNAKNSLYLQMNSLRAEDTAVYYCARSELGFDYWGQGTLVTVSS", "VL": "DIQMTQSPSSVSASVGDRVTITCRASQGISIWLAWYQQKPGKAPKPLIYAASSLQSGVPSRFSGSGSGTDFTLTISSLQPEDFATYYCQQANSFPLTFGGGTKVEIK", "notes": "also called 85802_10M17A"}, "B4": {"name": "85802_08F20 (antibody, V domains shown)", "VH": "QVQLVQSGAEVKKPGASVKVSCKASGYTFIGYYIHWVRQAPGQGLEWMGWINPHSGGTNYAQKFQGRVTMTRDTSISTAYMELSRLRSDDTAIYYCTKEANNWGYAFDIWGQGTMVTVSS", "VL": "not shown", "notes": "also called 85802_08F20A"}, "B5": {"name": "85802_06A17 (antibody, V domains shown)", "VH": "EVQLVQSGAEVKKPGESLKISCKGSGYSFTSYWIGWVRQMPGKGLECMGIIYPGDSDTRYSPSFQGQVTISADKSISTAYLQWSSLKASDTAMYYCARHEGAYWYFDLWGRGTLVTVSS", "VL": "QSVLTQPPSVSGAPGQRVTISCTGSSSNIGAGYDVHWYQQLPGTAPKVLIYGNSNRPSGVPDRFSGSKSGTSASLAITGLQAEDEADYYCQSLDTSHVVFGGGTKLTVL", "notes": "also called 85802_06A17A"}, "B6": {"name": "85802_06H06 (antibody, V domains shown)", "VH": "QVHLQESGPGLVKPSETLSLTCTVSGGSISYYYWNWIRQPPGKGLEWIASIYNSGNINYNPSLKSRVTISVDTSKNQFSLKLTSVTAADTAVYYCARGGYSYGYFDNWGQGILVTVSS", "VL": "SYELTQPPSVSVSPGQTASITCSGRELGNKYAYWYQQKPGQSPVLVIYEDYKRPSGIPERFSGSNSGNTATLTISGTQAMDEADYYCQAWDSSTVIFGGGTKLTVL", "notes": "also called 85802_06H06A"}, "B7": {"name": "85802_06F06 (antibody, V domains shown)", "VH": "QVQLQESGPGLVKPSETLSLTCTVSGGSISSYYWSWIRQPPGKGLEWFGYIYDSGSTNYNPSLKSRVTISVDTSKNQFSLKLSSVTAADTAVYYCARGSYFWYFDLWGRGTLVTVSS", "VL": "B6 VL with R25D, E26K, N29A, Y33S, Q36H, E49Q, Y51T, I96V", "notes": "also called 85802_06F06A"}}, "note": "Positions count from the first letter of the chain named."}
{"target": "T1, IL-12 receptor endogenously expressed on THP-1 cells (UniProt P42701 24-662; Q99665 24-862)", "T1 construct": "whole, on cells", "assay": "FACS, hybridoma supernatant, THP-1", "units": {"Fold over buffer": "fold"}}
{"binder": "B1", "Fold over buffer": 53}
{"binder": "B2", "Fold over buffer": 27}
{"binder": "B3", "Fold over buffer": 21}
{"binder": "B4", "Fold over buffer": 21}
{"binder": "B5", "Fold over buffer": 28}
{"binder": "B6", "Fold over buffer": 34}
{"binder": "B7", "Fold over buffer": 35}
{"target": "T2, human IL-12RB2 overexpressed on 293T cells (Example 2) (human, UniProt Q99665 24-862)", "T2 construct": "whole, on cells", "T2 sequence (looked up)": "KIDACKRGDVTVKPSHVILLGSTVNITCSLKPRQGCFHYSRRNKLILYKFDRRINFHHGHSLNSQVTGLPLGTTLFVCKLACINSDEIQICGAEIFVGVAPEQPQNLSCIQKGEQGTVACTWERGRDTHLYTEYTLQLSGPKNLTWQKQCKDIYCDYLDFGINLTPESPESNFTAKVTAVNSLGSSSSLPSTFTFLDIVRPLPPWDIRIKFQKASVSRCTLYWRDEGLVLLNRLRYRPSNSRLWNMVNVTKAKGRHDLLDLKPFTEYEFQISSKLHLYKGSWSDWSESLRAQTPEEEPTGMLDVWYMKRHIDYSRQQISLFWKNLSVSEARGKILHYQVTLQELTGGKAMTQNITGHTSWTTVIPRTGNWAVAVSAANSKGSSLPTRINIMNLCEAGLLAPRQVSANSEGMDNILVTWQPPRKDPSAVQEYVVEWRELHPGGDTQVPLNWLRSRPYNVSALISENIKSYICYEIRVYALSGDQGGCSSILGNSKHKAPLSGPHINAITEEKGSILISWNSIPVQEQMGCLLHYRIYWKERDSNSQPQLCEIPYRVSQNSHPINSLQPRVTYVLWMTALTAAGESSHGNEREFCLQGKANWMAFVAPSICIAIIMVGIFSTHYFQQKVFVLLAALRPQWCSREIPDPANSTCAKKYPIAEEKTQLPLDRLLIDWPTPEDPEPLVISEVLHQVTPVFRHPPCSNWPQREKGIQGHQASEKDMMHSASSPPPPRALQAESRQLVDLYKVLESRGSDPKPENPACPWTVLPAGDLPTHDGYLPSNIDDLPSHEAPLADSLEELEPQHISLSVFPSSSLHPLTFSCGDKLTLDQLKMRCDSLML", "assay": "FACS, hybridoma supernatant, 293T", "units": {"Fold over parental 293T": "fold"}}
{"binder": "B1", "Fold over parental 293T": 3.3}
{"binder": "B2", "Fold over parental 293T": 3.3}
{"binder": "B3", "Fold over parental 293T": 3.8}
{"binder": "B4", "Fold over parental 293T": 3.4}
{"binder": "B5", "Fold over parental 293T": 2.8}
{"binder": "B6", "Fold over parental 293T": 2.9}
{"binder": "B7", "Fold over parental 293T": 3.3}
{"target": "T3, cyno IL-12RB2 overexpressed on 293T cells (Example 2) (cyno, UniProt A0A2K5VNI7 24-860)", "T3 construct": "whole, on cells", "T3 sequence": "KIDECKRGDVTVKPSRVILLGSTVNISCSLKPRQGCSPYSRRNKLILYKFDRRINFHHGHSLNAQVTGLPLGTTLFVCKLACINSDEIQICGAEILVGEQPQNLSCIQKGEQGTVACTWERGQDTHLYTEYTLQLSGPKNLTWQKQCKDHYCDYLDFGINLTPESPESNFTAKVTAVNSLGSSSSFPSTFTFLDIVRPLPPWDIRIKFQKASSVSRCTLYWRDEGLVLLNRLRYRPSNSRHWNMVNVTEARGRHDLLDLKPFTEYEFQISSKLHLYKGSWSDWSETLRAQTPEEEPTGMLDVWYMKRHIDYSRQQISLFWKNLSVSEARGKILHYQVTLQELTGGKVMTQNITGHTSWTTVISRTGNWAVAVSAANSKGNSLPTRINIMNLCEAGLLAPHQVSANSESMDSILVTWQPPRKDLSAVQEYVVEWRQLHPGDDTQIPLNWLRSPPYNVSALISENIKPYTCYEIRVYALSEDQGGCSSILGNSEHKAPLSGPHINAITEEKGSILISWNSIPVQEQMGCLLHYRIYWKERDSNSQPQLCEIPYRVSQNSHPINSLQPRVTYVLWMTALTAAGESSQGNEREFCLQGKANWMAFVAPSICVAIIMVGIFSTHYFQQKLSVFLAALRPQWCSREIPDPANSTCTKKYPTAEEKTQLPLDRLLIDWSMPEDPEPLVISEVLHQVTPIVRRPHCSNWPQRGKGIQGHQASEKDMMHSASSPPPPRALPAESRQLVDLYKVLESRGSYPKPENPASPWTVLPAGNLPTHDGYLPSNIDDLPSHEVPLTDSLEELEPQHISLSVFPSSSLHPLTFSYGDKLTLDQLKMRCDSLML", "assay": "FACS, hybridoma supernatant, 293T", "units": {"Fold over parental 293T": "fold"}}
{"binder": "B1", "Fold over parental 293T": 6}
{"binder": "B2", "Fold over parental 293T": 13}
{"binder": "B3", "Fold over parental 293T": 12}
{"binder": "B4", "Fold over parental 293T": 8}
{"binder": "B5", "Fold over parental 293T": 11}
{"binder": "B6", "Fold over parental 293T": 10}
{"binder": "B7", "Fold over parental 293T": 14}
